The text below walks through data of patent publication US20210147485A1, “PEPTIDE LIGANDS FOR BINDING TO INTEGRIN” (BicycleTx Limited, priority 2018, published 2021).

Starred links: 1 amine or outer side, 2 acyl side, 3 side chain; linkers in the order of their positions; H or OH if unused. Positions of bridges follow the written chain, without caps; N, C: chain ends. Non-standard residues stand in square brackets, D forms with d. No end group written: not given here. TBMB = c1c(C[*:1])cc(C[*:3])cc1C[*:2]; Dap(Me) = CNC[C@H](N)C(=O)O Bounds are passed on as bounds.

Assay [1] deals with integrin αvβ3 (Homo sapiens, UniProt P05106+P06756). Briefly: Integrin αvβ3 competition binding assay (competition fluorescence polarisation, FITC-LC-GRGDSP ligand). The note with it: relative to thioether linked Reference Example 1. The method, then: The peptide ligands of the examples and the reference examples were tested in the above mentioned assay.
The following reference peptide ligands having a TBMB or TATA scaffold with three thioether linkages to cysteine residues of the specified peptide sequences were prepared and evaluated for affinity to integrin αvβ3 as described in detail in our earlier application GB1800598.3 filed 15 Jan. 2018.

Assay [2] has as its target integrin αvβ3. The assay is described as follows: competition fluorescence polarisation, 5 nM FITC-LC-GRGDSP tracer; n2.
Assay [3] concerns the target integrin αvβ3. The assay is described as follows: competition fluorescence polarisation, 5 nM FITC-LC-GRGDSP tracer; n1.

“[Ac]A[Dap(Me)]ILRPN[Dap(Me)]DLDGR[Dap(Me)]A [BCY00009181]”: the “binding affinity to integrin αvβ3 (in words)” value at integrin αvβ3 [1] was “larger drop in the measured affinity”.
With Ac-A[Dap(Me)]ILRPN[Dap(Me)]DLDGR[Dap(Me)]A (linker 2-8-14 via TBMB) [BCY00009181], the inhibition constant (Ki) in the assay with integrin αvβ3 [2] and with integrin αvβ3 [3] was greater than 18.6 µM in each case.
